This note sets out measurements from article PMC10452240, “Biochemical Characterization of the Copper Nitrite Reductase from Neisseria gonorrhoeae” (Biomolecules, 2023).

This data set deals with the molecule itself. Briefly: SEC; Superdex 200 10/300 GL, 50 mM Tris-HCl pH 7.6, 150 mM NaCl; 50 nmol NgCuNiR; apparent molecular weight from a calibration curve (Gel Filtration Calibration Kit, High Molecular Weight).

B1: copper-containing nitrite reductase from Neisseria gonorrhoeae, soluble domain (enzyme)
chain: AAQATAETPAGELPVIDAVTTHAPEVPPAIDRDYPAKVRVKMETVEKTMKMDDGVEYRYWTFDGDVPGRMIRVREGDTVEVEFSNNPSSTVPHNVDFHAATGQGGGAAATFTAPGRTSTFSFKALQPGLYIYHCAVAPVGMHIANGMYGLILVEPKEGLPKVDKEFYIVQGDFYTKGKKGAQGLQPFDMDKAVAEQPEYVVFNGHVGSIAGDNALKAKAGETVRMYVGNGGPNLVSSFHVIGEIFDKVYVEGGKLINENVQSTIVPAGGSAIVEFKVDIPGSYTLVDHSIFRAFNKGALGQLKVEGAENPEIMTQKLSDTAYA
notes: the construct has no signal peptide; cytoplasmic 36.5 kDa protein; Holds one type 1 and one type 2 copper centre per monomer (2.0 ± 0.1 Cu per monomer); No removal of the His-tag is described; also called NgCuNiR; AniA
On to B1, for which the stoichiometry N (commonly the number of molecules, sites or subunits per partner or assembly) stood at 3.
